In publication PMC3741624:

Molecular target: human plasma fibronectin, manually deposited single Fn fibers (human)

Row | Substance | ratio of ALP positive hMSCs on stretched Fn fibers after 7 days with the function-blocking antibody against α5β1 (clone JBS5), against no antibody | ratio of ALP positive hMSCs on relaxed Fn fibers after 7 days with the function-blocking antibody against αvβ3 (clone 23C6), against no antibody
1 | integrin α5β1 (from UniProt P08648 42-1049; P05556 21-798) (receptor) | 31% | –
2 | integrin αvβ3 (from UniProt P06756 31-1048; P05106 27-788) (receptor) | – | 30%
